test: yeast display, Sf9 membrane polyspecificity reagent, FACS + sequencing; frameworks hold sequencing errors
In short: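 A nanobody's polyreactivity label depends on the gate it was sorted from. Yeast display cells were stained with 10% biotinylated, detergent-solubilized Sf9 membrane reagent for 1 hour at 4 °C, enriched on streptavidin microbeads and sorted by FACS. The low and high (top ~1%) gates were set on anti-HA fluorescence for expression and streptavidin fluorescence for reagent binding.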

Sequence	polyreactivity (PSR sort gate)
QVQLVESGGGLVQAGGSLRLSCADSGIIFITNAMGWYRQAPGKERELVAAISSTVSTNYADSVKGRFTISRDNAKNTVYLQMNSLIQEDTAVYFCAAEWGLTQGESIYDFWGQGTQVTVSS	low polyreactivity
QVHLVESVGGLVQAGGSLRLSCAASGIIFNDYAMGWYRQAPGKERELVATISWSGGSTYADSVKGRFTISRDNAKNTVYLQMNSLNPEDTAVYYCNADLGSSYDWGQGTQGTVSS	low polyreactivity
QVQLVESGAGLGQAGVSLRLSCAASGSTFPTYAMGWYRPAPGKERELVAAIDWSDGTTYYADSVKGRFTISRDNANNTVYLQMNSLKPDETAGYYCAASLSLSEYDYWGQATQVTVSS	low polyreactivity
QVQLVESGGGLVQAGGSLRLSCAASGSTLQVNAMGWYRQAPGNERELVATISFSGGSTYYADSVKGRFTISRDNAKYTVYLQMNSLKPEDTAVYYCNADSFVSWYNQFWYQATYDYWGQGTEVTVSS	low polyreactivity
QVQLVESGGGLVQAGGSLRLSCAASGSIFVLNAMGWYRPAPGKDRELVAAITNVGSTYYADSVKGRFTISRDNAKNTVYLQMNSRKPEDTAVYYCNADPAEVLVGYDYWGQGTQVTVSS	low polyreactivity
QVQLVESGGGLVQAGGSLRLTCAASGSILIYNAMGWYRQAPGKQRELVADITNGGSTNYADSVKGRFTISRDNAKNTVYLQMHSLKPDDTAVYYCAKDAYYWWGPDYDYWGQGTQVTVSS	low polyreactivity
QVQLVESGGGLVQAGGSLRLSCAASGIIFRLNAMGWYRQAPGKERELVAAIRRRGGSTYYADSVKGRFTISRDKAKNTVYLQMNSLKPEDTAVYYCAKDPHGSDFGYWGQGTQVTVSS	low polyreactivity
QVQLVESGGGLVQAGGSLRLSCAASGSTFGLYAMGWYRQAPGKERELVAAIRWSGASTYYADSVKGRFTISRDNAKNTVYLQMNSLKPEDTAVYYCARRALGPRRGIRYDYWGQGTQVTVSS	high polyreactivity
QVQLVESGGGLDQAGGSLRLSCAASGSTFRSYAMGWYRQAPGKERELVAVISSGDSTYYADSVKGRFTISRDNAKNTVYLQMNSLKQEDTAVYYCAADSYVLGRWYGYWGQGTQVTVSS	low polyreactivity
QVQLVESGGGLDQAGGSLRLSCAASGSTFRNNAMGCYRQAPGKEREFVAAISRRGGSTYADSVKGRFTISRDNAKITVYLQMNSLKPEDTAVYFCAVRPSRILTGGRMDYWGQGTQVTVSS	high polyreactivity
QVQLVESGGGLVQARRSLRLSCAASGSTFVGNTMGWYRQAPGTERELVAAISRRGGGTNYADSVKGRFTISRDNAKNTVYLQMNSLKPEDTAVYYCAAKLVYPGKFNYWGQGTQVTVSS	high polyreactivity
QVQLVESGAGLVQAGGSLRLSCAASGFIFVKYAMGWYRQAPGKERELVAAISRSGGRTYYADSVKGRFTISRDNAKNNVYLQMNSLKPEDTAVYYCATDYYEDWRGYEDYWYRPYDYWGQGTQVTVSS	high polyreactivity
QVQLVESGGGLVQAGGSLRLICAASGRIFRPYAMGWYRQAPGKEREFVATIRFTTGRTYYADSVKGRFTISRDNAKNTVYLQMNSLKPEDTAVYYCAADFAFVNYAKISYTTHDYWGQGTQVTVSS	high polyreactivity
QVQLVESGGGLVQAGGSLRLSCAASGIIFYLYAMGWYRQAPGKERELVAAISRRGGSTYYADSVKGRFTISRDKAKNTVYLQMNSLKPEDTAVYYCAATIGTFGYGYWGQGTQVTVSS	high polyreactivity
QVQLVESGGGLVQAGGSLRLSCAASGFTFSRNAMGWYRQAPGKERELVAAISSSGGSTYYADSVKGRFTISRDNAKNTVYLQMNSLKPEDTAVYYCNVDHWRRGRSDNYWGQGTQVTVSS	high polyreactivity
QVQLVESGGGLVQAGGSLRLSCAASGNIFRGYTMGWYRQAPGKERELVATITWNGVSTFYADSVKGRFTISRDNAKNTVYLQMNSLIPEETAVYYCPAYYPSHDYSGVWSDTYEYWGQGTQVTVSS	low polyreactivity

Sequence	polyreactivity (PSR sort gate)
QVQHVESGGGLVQAGGSLRLSCAASGFTYFSNAMGWYREAPGKERELVASITNDGSTYADSVKGRFTISRDNAKNTVYLQMNRLKAEDTAVYYCAARFPKWRYSPRTGERFDYWGQGTQVTVSS	low polyreactivity
QVQLVESGGGLVQAGASLRLSCAASGRTFTQYAMGWYRQAPGKERELVAAISRSGGTTYYADSVKGRFTISRENAKNTVYLQMNSLKPEDTAVYYCAARWWYRYNYDYWGQGTQVTVSS	high polyreactivity
QVQLVESGGGLVQAGGSLRLRCAASGLTFTYYAMGWYRQAPGKERELVAAISSGGNTNYADSVKGRFTISRDNAKNTVYLQMNSLKPEDTGVYYCAADDYYDHRVIYRSWYDYWGQGTQVTVSS	low polyreactivity
QVQLVESGGGLVQAGGSLRLSCAASGSTFYPYAMGWYRQAPGKERELVAAISSGGSTSYADSVKGRFTISRDNAKNTVYLQMNSLKPEDTAVYYCAVDVAGGEGMDYWGQGTQVTVSS	low polyreactivity
QVQLVESGGGLVQAGGSLRLSCAASGRISTAYAMGWYRQAPGKERELVAAISSGTSTTYADSVKGRFTISRDNAKNTVYLQMNSLQPEDTAVYYCNADSWYGHYDSWGQGTQVTESS	low polyreactivity
QVQLVESGGGLVQAGGSLRLSCAASGRIFSVYDMGWYRQAPGKERELVAAISWSGGTTYYADSVKGRFTISRDNAKNTVYLQMNSLKPEDTAVYYCAARSRSRYDYWGQGTQVTVSS	high polyreactivity
QVQRVESGGGLVQAGGSLRLSCAGSGRIFVQYAMGWYRQAPGKERELVAAISGSGGRTYYADSVKGRFTISRDNAKNTVYLQMNSLKPEDTAVYYCARRGAYTGRYDYWGQGTQVTVSS	high polyreactivity
QVQLVESGGGLAQAGGSLRLSCAASGRTFVTNAMGWYRQAPGKERELVAAISKSGGRTYYADSVKGRFTISRDNAKNTVYLQMNSLKPEDTAVYYCAADKRYLSYDYWGQGTQVTVSS	high polyreactivity
QVQLVESGGGLVQAGGSLRLSCAASGRTFEVYAMGWYRQAPGKERELVAAISGGDDSTYYADSVQGRFTISRDNAKNTVYLQRNSLKPEDTAVYYCNAHYPTSATLPKTVVEYDYWGQGTQVTVSS	low polyreactivity
QVQLVESGGGLVQAGGSLRLSCADSGSIFDFNTMGWYRQAPGKERELVAAISQRTGRTYYADSVKGRFTISRDNANNTVYLQMNSLKPEDTADYYCAVVWYDKGRQTRYNSWGQGTQVTVSS	high polyreactivity
QVQIVESGGGLVQAGGSLRLSCADSGTTFRFNAIGWSRQAPGKERELVAAITGIGGITYYADSVKGRFTISRDNAKNTVYLQMNSLKPEDTAVYYCNAVAARYSVRNGYSTHYDYWGQGTQVTVSS	high polyreactivity
QVQLVDSGGGLVQAGGSLRLSCAASGRTFSPYMGWYRQAPGKEREFVAAISKSGGRTYYADSVKGRFTISRDNAKNTVYVQMNSLKPEDTAVYYCAAGAWRGPYSGYYYWGQGTQVTVSS	low polyreactivity
QVQLVESGGGLVQAGGSLRLSCAASGRTFRWNAMVWYRQEPGKERELVARITSGGRTSYADSVKGRFTISRDNAKNTVYLQMNSLKPEDTAVYYCAARSIGYHWGYDYWGQGTQVTVSS	high polyreactivity
QVQLVESGGGLVQAGGSLRLSCAASGSILRLYAMGWYRQAPGKERELVAAISSGGSTYYADSVKGRFPISRDNAKNTVYLQMNSLKPEDTAVYYCAAGVFWSWRYAYDYWGKGTQVTVSS	low polyreactivity
QVQLLESGGGLVQAGGSLRLTCAASGLTFSNYAMGWYRQAPGKERELVADIRSGGNTNYADSVKGRFTISRDNAKNTVYLQMNSLKPEDTAVYYCATDGYRIDVYHPDYRYDYWGQGTQVTVSS	low polyreactivity
QVQLVESGGGLVQAGGSLRLSCAASGRIFKTYAMGWYRQAPGKERELDAAITASGGRTYYADSVKGRFTISRDNAKNTVYLQMNSLKPEDTAVYYCAADSGNEYDYWGQGTQVTVSS	high polyreactivity
